Key:
[1] = target: T1, rhesus monkey soluble CD154 (rhesus monkey, UniProt P63304 113-261, limits assumed); experiment: free and total sCD154 in platelet poor plasma of rhesus monkeys dosed IV or SC (3-month study)
T1 construct: Endogenous plasma protein measured in dosed animals; also called sCD154; free sCD154
T1 sequence (looked up): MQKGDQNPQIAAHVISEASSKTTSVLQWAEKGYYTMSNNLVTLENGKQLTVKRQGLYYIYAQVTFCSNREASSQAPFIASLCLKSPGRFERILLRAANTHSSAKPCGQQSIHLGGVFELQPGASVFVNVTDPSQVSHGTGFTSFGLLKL
Description: Rhesus monkeys were administered the anti-CD154 antibody C4LB231 intravenously (IV) or subcutaneously (SC) once weekly for 13 weeks. The control vehicle was 0.9% sterile saline (NaCl). Animals were dosed by IV or SC injection as described above for the 8-week study on days 1, 8, 15, 22, 29, 36, 43, 50, 57, 64, 71, 78, and 85 for a total of 13 doses. On days 29, 57, and 155 (recovery study animals only) animals received an intramuscular injection of a 1 mg dose of KLH antigen to the left thigh for a KLH-antigen challenge study. Blood samples were collected from the animals and evaluated as described below.
Free and total soluble CD154 (sCD154) were assessed in platelet poor plasma samples. […] The extent of reduction was greater at the higher dose levels. A dose-dependent decrease in free sCD154 coupled with dose-dependent increase in total sCD154 indicated good target engagement in plasma.

soluble human CD154 = target: T2, soluble human CD154 (human, UniProt P29965 113-261); experiment: ELISA of free and total sCD154 in platelet poor plasma of dosed human participants
T2 construct: also called sCD154; shCD154
T2 sequence: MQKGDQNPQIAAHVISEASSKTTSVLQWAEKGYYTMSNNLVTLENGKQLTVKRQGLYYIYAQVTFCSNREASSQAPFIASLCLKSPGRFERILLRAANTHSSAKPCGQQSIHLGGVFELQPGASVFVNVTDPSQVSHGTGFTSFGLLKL
Description: Mean free and total soluble CD154 (sCD154) concentrations were determined by ELISA in platelet poor plasma samples obtained from the participants administered C4LB231 according to the study described in Example 2. Free sCD154 concentration remained undetectable until 14 days after dosing indicating suppression of the target of […].

B1: anti-CD154 antibody C4LB231 (antibody, human IgG1, kappa, V domains shown)
VH: QVQLVQSGAEVKKPGSSVKVSCKASGGTFSSYGISWVRQAPGQGLEWMGWISPIFGNTNYAQKFQGRVTITADESTSTAYMELSSLRSEDTAVYYCARSRYYGDLDYWGQGTLVTVSS
VL: DIQMTQSPSSLSASVGDRVTITCRASQSISSYLNWYQQKPGKAPKLLIYYANSLQSGVPSRFSGSGSGTDFTLTISSLQPEDFATYYCQQSDSIPWTFGQGTKVEIKR
notes: Human IgG1σ mAb (Fc-silencing mutations L234A, L235A, G237A, P238S, H268A, A330S, P331S); also called C4BL231; C4BL231 (Fc silent)
binding result [1]: binds
binding result (soluble human CD154): binds

From US20210317220A1 (Janssen / Centocor, published 2021)
